Results published in the NTF2 design screens of Basanta et al. (2020).

Assay: protease stability score; higher = more stable; yeast display proteolysis, trypsin and chymotrypsin;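 further: relative to predicted unfolded state with 0 unfolded-like and 1 meaning tenfold more protease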

Sequence | protease stability score
DEDTEIAFELVDLVMKSLKTGDEHLMLRLMDPHTRLEVGDKEHHGWEEILKELSEIRIHLEDVDHRDVRIYGEKIHVDVEVDITIEYNGRRTRVKTRLEVDILKVNGQWRVKQVSLK | 2.07
DEDTEIALKLHRLILHFIHTGDWENFAKYLDPRTKLHVGEFNNVGMEEIRKTWKHLRLRIDMYDERRVEVIDGRLHVEGEIRSTVHIGDKELHFERDSNFILVVINGRVKRIEINIV | 1.47
DEDTEKAEKFVHSFLMAMLTGDEEELWKYLDPRVRTIIGDKHYHGREQTKKAWEELGIDHSDVERFHVHIQGDKVEVHIDLRVHVNGRSYDVHIILIVTKINGKWYIDTLIFRKV | 1.44
DEDTEKHKELLEMLVVAYLTGDFRHWWDLADPHVKLDQGDKHLHGREDMVEWIRRFIKKFKNVQVKIRHIHHQGNKDNIDGILDVDGREYHVEIIIVLVDGVIRSEEIRVK | 1.87
DEDTEKLEKMIEELFKLWLTGDEEKLTHLADPNMRVDVNGRDLHGRHLMSSLWRQIRIEDQRLRIRDWEFFDGRVTIHSHITVRGHINGRHEEITHDVRIVVDKINGRWIIREFRIH | 1.27
DEDTEKLKKSLEVIWRLLHTGDENSLEHLMDPNARLDINGVTQVGRTASKIIIDRFDHIRHIHINDVRFIDGRAHVHGKTDGIQGDKRYEVSMEIILLKINGRWIIHQFYTE | 1.38
DEDTEKVERIAKEVINLHETGDWENWSKQADPHTRVELNVDGQHFEYIGREKFREALEWLGIKHSHFHHIEIIGDKLHVDGYSFFNGRRTRVELRFVIVNGRIKHQIIIIK | 0.848
DEDTEKVRWFFEVLKRASDTGNEEEELKLLDPNARYIFNGKNDHGRRAWERFKKNLGVKHVEIHPRDFDVVDGRIHIEIELRIHVDGREIRFDIEIIVEKFNGRWYLRSIHID | 0.376
DEDTELAERWVELFRKSVETGDEHKLEKLLDPHVKLDIGDKRYHGRELAVDTLKTMIDEMRSDHVTIDRVDVFDGRVILHSRIESTVDGRRTELEMRIVARKIDGRWVVESLEIN | 1.49
DEDTELDETISREIIHAEKTGNEDWLTKLIDPNPRIEINGRIFHGMDFWLKFLKDMGVDHIDVKRDRAYNGVLDMDGYIIVNGREIRTHIHIVIVDGKATHIRIEIR | 1.61
DEDTELLKHHLDIFRDAVRTGDEEKERKYADPDDRINVDGVIFHGWEESKRFYEHWRVKDFHVHDMKVQGDKADVESRLVVQINGREVIFRVKLIITKVNGRWKHTMLEIK | 1.62
DEDTELMRHIIERLLRSSKTGDEDSMADLLDPNVRIVNEDERLHGRELASRFMYELRIHHFELTRFKVYDGKIDIDGIHDGEINGVRRRVWVEFISVKVNGKWQIKELRIG | 1.35
DEDTELSKHFDDVFAEYVETGDEHSLRHLMDPNTRILVNGVDLVGWELVLDHLDRHLKEMRIKRVTTHEMRIYGDKVTIHSKLKMHIDGRDVDTDTEIIVKKVDGKWIMHFVNLH | 2.25
DEDTELVYRIIKRLKEYIKTGDEDSIKELLDPNARIEVGDKEIHGRDRFAHMLVEIWSKDHKVELKDSRTFPNHLEYDGVLREDIEIDGKRIHRTRKLIVLVRKVNGRWYVEEIIFH | 2.19
DEDTENVLRALEQFDEKLLTGDWRSLEELADPHVRIDINGQDIHGRETHSEHFRRIKNLKLEHLDVHSFTVIGNKVELDTEIIGEIDGRRRIFRVRMRILKIDGRWVLHSVEIG | 1.46
DEDTEQAERVSHIMLHLYHTGDEEKFNHLADPNVRVEVNGVEIIGRHAFMKHLREIRLHDLRIEEVHIRVFNGRLRIEIKGRMDGHFNGVTKRTEVDILIIVLKVDGRWHVHSFSETIH | 1.6
DEDTEQLEWILKLHLEISRTGDEHSEHHMVDPNTRIEVGDKELHGREEIVKWFAHIRIDHIDIKRYHIFNGRVRIDGRVEGNVDGRETTMRVIFLSDKFNGRWRHRSVIVR | 1.53
DEDTEQVERALHLWVKLVQTGNEEVIRHLLDPNVRIIVNGVDYHGRSALDELQRRVDVNTWKRVRLHDASVYNGRMHIDGEIDTQEIVGDKRIIIHTKVDMVSSKVNGKWIFHSMIFH | 0.848
DEDTESATKALQLFIHLFITGDEEQLLRLLDPNARNDIGDYHRHGREFLEFFVERVKNVTFHLHDMRLELIGDKIHLIIHGDEWVNGVRLRTELVILMEKVNGRWVIRSVRVIFR | 1.75
DEDTEVIERSITHWMKVLETGDWEDIERNADPNARMDINGREFHGREEVSRHLREDLDRLGIERVRVEIKHYRVQGEFIDIHGILRQGEYESKIHVRASKINGKWVLESLEVV | 0.078
DEDTHDNRHALELLLRFLETGDEDSLRELADPNARLSVNGRNQHGREDLFSTWSEMGVDHMEIKSHRIVDGRLLLHGHIKFNGRREDVHIFMVKIDGRWYIEEVKIL | 1.56
DEDTHDTKKAVEEFIHTVRTGDEHSLRRQLDPNARVEVGDKEQHGRLFIEWFIRMLGIDNVDVRVHDHHVYDGRVEVDLLLHVDGRDFRVNIVWDKINGQWRNRMVIFR | 1.17
DEDTHEFRHFIELRRHNLETGNERALAELLDPNVRILFDGVDIVGRDSWIKHLRELGYEQVDSRVNIKRLEIWNGRAHMDGRVRRHFDGKTTEVDVHLVLVKFNGRWVIESIHNH | 0.555
DEDTHKLDKHVKEVLTAWETGDEEMLLRLIDPDARITIGDKEVIGMEEALKHWKEIRIKHLELTDFKLVDGQLDSKVQVHSEVNGRRFETTIRIVLHKINGKWRIRSMTFI | 1.34
DEDTHLAKVVLEIFLHLMRTGDFKETWEYADPHVRIDIGDKHLHGREELARLMEELGIDHFEIRDVHLQGDKLHIRTDVDFNGVRTHVVFIILKVDGRWVLTHVRIE | 1.46

Sequence | protease stability score
DEDTHMMELFNKTLHHVERTGDETLLNKLMDPHARLEIGDKHNHGRENVERERRRLLKELGHTQVEFRIREIRFQGDKLTIHGHTLVNGVHFDIRLLVWKVDGRWHMESFHLE | 1.46
DEDTHMVERALTLLYKTLHTGDEDLYRELIDPHVRVEINGQELIGRELLIEWFREMVERFPNIRIEIHDIRLFDGRLESDSRLHYGDKSREVHLIARKVNGQWRLESLKVE | 1.41
DEDTHNASEALEYLWRVIMTGDEEQVERMADPNVRVVFNGKHLHGREWFLRVLLHIRFDRVRIEHIHTQGEKVRTDSKSDIEFDGRRIEVDIEIYIHKINGRWIVKMFIFR | 2.89
DEDTHRLELVLDLWSFAMLTGDEETLTKLIDPNMRIEIGDKIAHGREKLHEMLREIRIQIHHVHLDDYRVYGNKITLHVHIRMTLHVDGRTIHTELKTEIIIHKIDGKWVFHKVRFE | 1.28
DEDTHVMEHALREWSHIFHTGDEDRLLELMDPRTRATVNGVDLHGMEEITRLETEIIRSHGMKFRTFLLEDFKTIDGKIHVHSRLNVDINGKERELRVRIIAKKVNGRWVVTKVEVG | 0.952
DEDTHWIRDALRRYEEMLRTGDEDLFRRLFDPHVRVEINGQENHGMESILKLYRDLVEHLGIKHVQEVELEDVNMIDGVIILHIRVRVRFDGKHETIRMNVVAYKVNGQWRLHELKEG | 1.47
DEDTHYARHIMELIIRNFITGDEDDLLRLMDPNTRLHINGVDNHGREEIKRDLERWWHRYPNITVIIRVEHMTAIDGKAHSEMRVQIHYNGVTYSRETRVILIVINGRLHSVEFRID | 1.11
DEDTKASELAIEILIKILLTGDEDSLNHLFDPNVRLEVGDKQMHGMESMVKFQRHWRVNHTIVKRMEIINIGDKMHIHLVGHINGDFNGKTSEHESHVHILNEKVNGRWLIRSMEIEIR | 1.62
DEDTKEADDFTKIWAKSVETGDEDMLKHLADPHVRVEIGDKVFIGRHFWLKVLRHIRVESVHVEDYKVQGEKVEYHVRFEVDINGQKVESTRRMIVRKVNGRWILETVILE | 1.49
DEDTKHDEEMFRLVLHLLRTGDEEKLTELADPNVRLEVDIDGRRDTYHGREEMLKWLQELLKRYKNMTIKVHRVSVVNGKAHMDGITKVGDKEFKELRIWVVIDGKIRTIKIEIL | 2.27
DEDTKIIKEMLDEMVHATLTGNEDLLRELVDPEVRIRVGDKEKHGWEFLFHMLKHLRIDRSEITIHSIRVVNGRVEVDGELRIIFTIGDKHIEFSTRVHIILEKVDGRWRVQALLFH | 0.688
DEDTKIVEEAIRYHKHNIETGNEEYMDKLADPNTRLEINGVEFHGRESYNHWMRRVLEHWRFHDIKIDSVDVFNGRVRFYGRRIVKIGEFTMIFEITYISTKFNGRWILEEEENR | 0.564
DEDTKKAEEVLRMFDEAFRTGDEDILRELMDPNVRYVINGREFHGREEVTNAMRELHHRFDHFKSTHIKDHKIQGDKMDVHSTLTYHVNGKDIHVDSREVWVKVNGKWHLRKIIIH | 2.24
DEDTKLAKEAWRHLMENLHTGNEEIILHLVDPNAKFRYGEFEHHGRESLKWFRKRYDHIEVTHVEFHHVQVQGDKLIYHGTLEMSFEQGNKHEHWEYNVLLISRKINGRWIVKSIEVN | 0.953
DEDTKLAQKMSKLLNHAIHTGDEKILRQLLDPHVRVHIGDKEHHGWKEYEKIMQEWRFEHVETEHVSLVNGRLHIDSHIVGNIDGRRTEVETHIIIKKFDGRWIDTEFHMK | 0.583
DEDTKLMEEVIRLHMELLKTGNWDELLHMLDPNAKFEAEGRDKHGWHNFLREYKHFYEELGFKHSRVHHVRVQGDKLEMDLRINVGDKEFETNLEVLKVNGRWLIKFVRID | 1.58
DEDTKLSKDAIRTFLESMVTGDEHILHRLADPNVKYSQGDKEYHGWEYAREFWSRVKNIRFHLKHYEVYGNKVHIEGELHVDGRHFEVHIVIIKFDGRWKIESHEIK | 1.19
DEDTKLVEEFLRDWLRALLTGDEEHLHKLLDPNTRVEINGQEFHGREMEVELMRHWRLDHIDIREIRITIIGNKVENHVRGRVDGEFDGRKINRETKLVNYVVKVNGRWLFHSMELRTH | 1.35
DEDTKMSEEALRILVEIWRTGDEDRFLELADPHTRILINGRELHGMEFFVTWLRKVKNLKIERIQLDHVRFIDGRAELETTIRLRYGDKHDDLTFKFISDKFDGRWVLSEIIII | 2.15
DEDTKRAEHIMRMFIHSMLTGDEKTTHELLDPEARVNINGVDLHGRETLLEHHHRWLHELRIEDMHTEHYEVQGDYVHLHTREVVVVDGRRIELTTTFLLLKVDGRWVWTHIHVK | 0.997
DEDTKRVEELMELWIEIWRTGDFKMLHHLLDPNVLLHVDIGDKHINVHGREEFTRFLEEELRKVKNAREEINDEKLVGDKVILDYSIHVNGRTLRVHLEIILIDGRMKVSRVKVK | 2.14
DEDTKTAWRMLHLSHKAIETGDEHLIKHLFDPHVRIHIDGVDLHGREELLTHLRHWRMVVEDEVSKDSKSYGDKITLDGHVDLTFEYNGRRVRVIFDTRIIIVKFNGRWLIKTIHFE | 0.512
DEDTKVVEEILRLLVEIWKTGDEHTWKRLLDPHARMDVDGRELHGREEIARHVKEETEKLGANVHNHVEIHHMEIIGNKVIIDGTVDGIVNGRITRIRVEVFWLVFDGVIKEEEHRVL | 0.955
DEDTLIAKEIAELIIHALLTGDEDILKRLMDPTVKNDVNGVEFHGREILYKLLLEMRIHRVEYTHIDMRIYNGRAEVRIHGKIHVTINGVHDDKERRIDIIIVKINGKWTIESFVVHRL | 2.53
DEDTNIEKMASQRIFHDIMTGDFQSLWEMFDPNARLIQGDWHSHGRENIIIYYMELVEKLGVTNVRFRLEDEDSQGDKVIIHSSLNINGRHFKLDIHAVKINGRWFIREVDVRLH | 1.4
